# Reference: the supplement of paper PMC5998384
# Columns and labels:
# HeLa Kyoto [1] = test: solubility in G1/S (NP-40 vs SDS abundance) (log2 ratio); higher = more soluble; conditions: cell cycle stage: G1/S
# HeLa Kyoto [2] = test: melting temperature (median over replicates), in situ; higher = more thermally stable
# HeLa Kyoto [3] = test: solubility change mitosis vs G1/S (difference of NP-40 vs SDS log2 ratios) (log2 ratio difference); higher = more soluble in mitosis
# 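For melting temperature (median over replicates), in situ in this document: HeLa Kyoto cells synchronized by double thymidine or nocodazole block, proteins quantified by TMT10plex mass spectrometry, three independent biological replicates.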
# 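For solubility change mitosis vs G1/S (difference of NP-40 vs SDS log2 ratios) in this document: synchronized HeLa Kyoto cells (double thymidine block for G1/S, nocodazole release for mitosis), protein amounts in NP-40 versus SDS lysates quantified by mass spectrometry, three biological replicates.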
# 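For solubility in G1/S (NP-40 vs SDS abundance) in this document: HeLa Kyoto cells arrested at G1/S by double thymidine block, proteins quantified by TMT10plex mass spectrometry in mild NP-40 versus SDS extracts, three biological replicates.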
Sequence,solubility in G1/S (log2) (HeLa Kyoto [1]),melting temperature (HeLa Kyoto [2]; cell cycle stage: G1/S),melting temperature (HeLa Kyoto [2]; cell cycle stage: mitosis),solubility change mitosis (log2) (HeLa Kyoto [3])
MGEFKVHRVRFFNYVPSGIRCVAYNNQSNRLAVSRTDGTVEIYNLSANYFQEKFFPGHESRATEALCWAEGQRLFSAGLNGEIMEYDLQALNIKYAMDAFGGPIWSMAASPSGSQLLVGCEDGSVKLFQITPDKIQFERNFDRQKSRILSLSWHPSGTHIAAGSIDYISVFDVKSGSAVHKMIVDRQYMGVSKRKCIVWGVAFLSDGTIISVDSAGKVQFWDSATGTLVKSHLIANADVQSIAVADQEDSFVVGTAEGTVFHFQLVPVTSNSSEKQWVRTKPFQHHTHDVRTVAHSPTALISGGTDTHLVFRPLMEKVEVKNYDAALRKITFPHRCLISCSKKRQLLLFQFAHHLELWRLGSTVATGKNGDTLPLSKNADHLLHLKTKGPENIICSCISPCGSWIAYSTVSRFFLYRLNYEHDNISLKRVSKMPAFLRSALQILFSEDSTKLFVASNQGALHIVQLSGGSFKHLHAFQPQSGTVEAMCLLAVSPDGNWLAASGTSAGVHVYNVKQLKLHCTVPAYNFPVTAMAIAPNTNNLVIAHSDQQVFEYSIPDKQYTDWSRTVQKQGFHHLWLQRDTPITHISFHPKRPMHILLHDAYMFCIIDKSLPLPNDKTLLYNPFPPTNESDVIRRRTAHAFKISKIYKPLLFMDLLDERTLVAVERPLDDIIAQLPPPIKKKKFGT [CIRH1A],-1.13,54.3 °C,52.3 °C,0.349
MGLCKCPKRKVTNLFCFEHRVNVCEHCLVANHAKCIVQSYLQWLQDSDYNPNCRLCNIPLASRETTRLVCYDLFHWACLNERAAQLPRNTAPAGYQCPSCNGPIFPPTNLAGPVASALREKLATVNWARAGLGLPLIDEVVSPEPEPLNTSDFSDWSSFNASSTPGPEEVDSASAAPAFYSQAPRPPASPGRPEQHTVIHMGNPEPLTHAPRKVYDTRDDDRTPGLHGDCDDDKYRRRPALGWLARLLRSRAGSRKRPLTLLQRAGLLLLLGLLGFLALLALMSRLGRAAADSDPNLDPLMNPHIRVGPS [ZFPL1],0.256,57.4 °C,–,-0.0676
MGLFGKTQEKPPKELVNEWSLKIRKEMRVVDRQIRDIQREEEKVKRSVKDAAKKGQKDVCIVLAKEMIRSRKAVSKLYASKAHMNSVLMGMKNQLAVLRVAGSLQKSTEVMKAMQSLVKIPEIQATMRELSKEMMKAGIIEEMLEDTFESMDDQEEMEEEAEMEIDRILFEITAGALGKAPSKVTDALPEPEPPGAMAASEDEEEEEEALEAMQSRLATLRS [CHMP3],0.866,51.4 °C,51 °C,-0.0644
MGPPRHPQAGEIEAGGAGGGRRLQVEMSSQQFPRLGAPSTGLSQAPSQIANSGSAGLINPAATVNDESGRDSEVSAREHMSSSSSLQSREEKQEPVVVRPYPQVQMLSTHHAVASATPVAVTAPPAHLTPAVPLSFSEGLMKPPPKPTMPSRPIAPAPPSTLSLPPKVPGQVTVTMESSIPQASAIPVATISGQQGHPSNLHHIMTTNVQMSIIRSNAPGPPLHIGASHLPRGAAAAAVMSSSKVTTVLRPTSQLPNAATAQPAVQHIIHQPIQSRPPVTTSNAIPPAVVATVSATRAQSPVITTTAAHATDSALSRPTLSIQHPPSAAISIQRPAQSRDVTTRITLPSHPALGTPKQQLHTMAQKTIFSTGTPVAAATVAPILATNTIPSATTAGSVSHTQAPTSTIVTMTVPSHSSHATAVTTSNIPVAKVVPQQITHTSPRIQPDYPAERSSLIPISGHRASPNPVAMETRSDNRPSVPVQFQYFLPTYPPSAYPLAAHTYTPITSSVSTIRQYPVSAQAPNSAITAQTGVGVASTVHLNPMQLMTVDASHARHIQGIQPAPISTQGIQPAPIGTPGIQPAPLGTQGIHSATPINTQGLQPAPMGTQQPQPEGKTSAVVLADGATIVANPISNPFSAAPAATTVVQTHSQSASTNAPAQGSSPRPSILRKKPATDGAKPKSEIHVSMATPVTVSMETVSNQNNDQPTIAVPPTAQQPPPTIPTMIAAASPPSQPAVALSTIPGAVPITPPITTIAAAPPPSVTVGGSLSSVLGPPVPEIKVKEEVEPMDIMRPVSAVPPLATNTVSPSLALLANNLSMPTSDLPPGASPRKKPRKQQHVISTEEGDMMETNSTDDEKSTAKSLLVKAEKRKSPPKEYIDEEGVRYVPVRPRPPITLLRHYRNPWKAAYHHFQRYSDVRVKEEKKAMLQEIANQKGVSCRAQGWKVHLCAAQLLQLTNLEHDVYERLTNLQEGIIPKKKAATDDDLHRINELIQGNMQRCKLVMDQISEARDSMLKVLDHKDRVLKLLNKNGTVKKVSKLKRKEKV [SAP130],0.147,50.5 °C,50 °C,-0.0185
MGSTESSEGRRVSFGVDEEERVRVLQGVRLSENVVNRMKEPSSPPPAPTSSTFGLQDGNLRAPHKESTLPRSGSSGGQQPSGMKEGVKRYEQEHAAIQDKLFQVAKREREAATKHSKASLPTGEGSISHEEQKSVRLARELESREAELRRRDTFYKEQLERIERKNAEMYKLSSEQFHEAASKMESTIKPRRVEPVCSGLQAQILHCYRDRPHEVLLCSDLVKAYQRCVSAAHKG [CHCHD6],0.215,54.7 °C,53.2 °C,0.232
MHRAPSPTAEQPPGGGDSARRTLQPRLKPSARAMALPRTLGELQLYRVLQRANLLSYYETFIQQGGDDVQQLCEAGEEEFLEIMALVGMATKPLHVRRLQKALREWATNPGLFSQPVPAVPVSSIPLFKISETAGTRKGSMSNGHGSPGEKAGSARSFSPKSPLELGEKLSPLPGGPGAGDPRIWPGRSTPESDVGAGGEEEAGSPPFSPPAGGGVPEGTGAGGLAAGGTGGGPDRLEPEMVRMVVESVERIFRSFPRGDAGEVTSLLKLNKKLARSVGHIFEMDDNDSQKEEEIRKYSIIYGRFDSKRREGKQLSLHELTINEAAAQFCMRDNTLLLRRVELFSLSRQVARESTYLSSLKGSRLHPEELGGPPLKKLKQEVGEQSHPEIQQPPPGPESYVPPYRPSLEEDSASLSGESLDGHLQAVGSCPRLTPPPADLPLALPAHGLWSRHILQQTLMDEGLRLARLVSHDRVGRLSPCVPAKPPLAEFEEGLLDRCPAPGPHPALVEGRRSSVKVEAEASRQ [NAB2],0.298,–,48.9 °C,-0.11
MHRGVGPAFRVVRKMAASGAEPQVLVQYLVLRKDLSQAPFSWPAGALVAQACHAATAALHTHRDHPHTAAYLQELGRMRKVVLEAPDETTLKELAETLQQKNIDHMLWLEQPENIATCIALRPYPKEEVGQYLKKFRLFK [PTRHD1],-0.278,55.6 °C,52.6 °C,0.625
MISRHLQNNLMSVDPASSQAMELSDVTLIEGVGNEVMVVAGVVVLILALVLAWLSTYVADSGSNQLLGAIVSAGDTSVLHLGHVDHLVAGQGNPEPTELPHPSEGNDEKAEEAGEGRGDSTGEAGAGGGVEPSLEHLLDIQGLPKRQAGAGSSSPEAPLRSEDSTCLPPSPGLITVRLKFLNDTEELAVARPEDTVGALKSKYFPGQESQMKLIYQGRLLQDPARTLRSLNITDNCVIHCHRSPPGSAVPGPSASLAPSATEPPSLGVNVGSLMVPVFVVLLGVVWYFRINYRQFFTAPATVSLVGVTVFFSFLVFGMYGR [TMUB2],0.229,55 °C,54 °C,-0.108
MKGSNRNKDHSAEGEGVGKRPKRKCLQWHPLLAKKLLDFSEEEEEEDEEEDIDKVQLLGADGLEQDVGETEDDESPEQRARRPMNAFLLFCKRHRSLVRQEHPRLDNRGATKILADWWAVLDPKEKQKYTDMAKEYKDAFMKANPGYKWCPTTNKPVKSPTPTVNPRKKLWAFPSDSSRDLPSPKKAKTEEMPQLNFGMADPTQMGGLSMLLLAGEHALGTPEVSSGTCRPDVSESPELRQKSPLFQFAEISSSTSHSDASTKQCQTSALFQFAEISSNTSQLGGAEPVKRCGKSALFQLAEMCLASEGMKMEESKLIKAKESDGGRIKELEKGKEEKEIKMEKTDETRLQKEAEFEKSAKENLRDSKELRNFEALQIDDIMAIKMEDPKEIRKEELEEDHKCSHFPDFSYSASSKIIISDVPSRKDHMCHPHGIMIIEDPAALNKPEKLKKKKKKSKMDRHGNDKSTPKKTCKKRQSSESDIESVIYTIEAVAKGDWGIEKLGDTPRKKVRTSSSGKGSILDAKPPKKKVKSREKKMSKEKSSDTTKESRPPDFISISASKNISGETPEGIKAEPLTPMEDALPPSLSGQAKPEDSDCHRKIETCGSRKSERSCKGALYKTLVSEGMLTSLRANVDRGKRSSGKGNSSDHEGCWNEESWTFSQSGTSGSKKFKKTKPKEDCLLGSAKLDEEFEKKFNSLPQYSPVTFDRKCVPVPRKKKKTGNVSSEPTKTSKGPFQSQKKNLFHKIVSKYKHKKEKPNVPEKGSGDKWSNKQLFLDAIHPTEAIFSEDRNTMEPVHKVKNIPSIFNTPEPTTTQEPLVGSQKRKARKTKITHLVRTADGRVSPAGGTLDDKPKEQLQRSLPKATETDCNDKCSHNTEVGETRSSTPEMPAVSAFFSLAALAEVAAMENVHRGQRSTPLTHDGQPKEMPQAPVLISCADQ [BBX],-0.353,47.4 °C,50 °C,0.277
MKTRQNKDSMSMRSGRKKEAPGPREELRSRGRASPGGVSTSSSDGKAEKSRQTAKKARVEEASTPKVNKQGRSEEISESESEETNAPKKTKTEQELPRPQSPSDLDSLDGRSLNDDGSSDPRDIDQDNRSTSPSIYSPGSVENDSDSSSGLSQGPARPYHPPPLFPPSPQPPDSTPRQPEASFEPHPSVTPTGYHAPMEPPTSRMFQAPPGAPPPHPQLYPGGTGGVLSGPPMGPKGGGAASSVGGPNGGKQHPPPTTPISVSSSGASGAPPTKPPTTPVGGGNLPSAPPPANFPHVTPNLPPPPALRPLNNASASPPGLGAQPLPGHLPSPHAMGQGMGGLPPGPEKGPTLAPSPHSLPPASSSAPAPPMRFPYSSSSSSSAAASSSSSSSSSSASPFPASQALPSYPHSFPPPTSLSVSNQPPKYTQPSLPSQAVWSQGPPPPPPYGRLLANSNAHPGPFPPSTGAQSTAHPPVSTHHHHHQQQQQQQQQQQQQQQQQQQHHGNSGPPPPGAFPHPLEGGSSHHAHPYAMSPSLGSLRPYPPGPAHLPPPHSQVSYSQAGPNGPPVSSSSNSSSSTSQGSYPCSHPSPSQGPQGAPYPFPPVPTVTTSSATLSTVIATVASSPAGYKTASPPGPPPYGKRAPSPGAYKTATPPGYKPGSPPSFRTGTPPGYRGTSPPAGPGTFKPGSPTVGPGPLPPAGPSGLPSLPPPPAAPASGPPLSATQIKQEPAEEYETPESPVPPARSPSPPPKVVDVPSHASQSARFNKHLDRGFNSCARSDLYFVPLEGSKLAKKRADLVEKVRREAEQRAREEKEREREREREKEREREKERELERSVKLAQEGRAPVECPSLGPVPHRPPFEPGSAVATVPPYLGPDTPALRTLSEYARPHVMSPGNRNHPFYVPLGAVDPGLLGYNVPALYSSDPAAREREREARERDLRDRLKPGFEVKPSELEPLHGVPGPGLDPFPRHGGLALQPGPPGLHPFPFHPSLGPLERERLALAAGPALRPDMSYAERLAAERQHAERVAALGNDPLARLQMLNVTPHHHQHSHIHSHLHLHQQDAIHAASASVHPLIDPLASGSHLTRIPYPAGTLPNPLLPHPLHENEVLRHQLFAAPYRDLPASLSAPMSAAHQLQAMHAQSAELQRLALEQQQWLHAHHPLHSVPLPAQEDYYSHLKKESDKPL [ATN1],0.377,53.9 °C,57 °C,0.405
